Positions count from the first letter of the chain named.

In test [1] the test system is KK-Ay diabetic model mice. As to the kind of experiment: Long-term administration experiment, KK-Ay diabetic model mice. Conditions: 1 mg/Kg twice per week; for Relative bioactivity: fast blood glucose decrease vs blank control relative to fusion protein of example 2, after 2 weeks. Type of test: in vivo, mouse. The method, then:
The drug is given twice per week, and the mice are fasted for 6 h each Wednesday and tested for fast blood glucose, meanwhile their food intake and weight variation are recorded. […] Specifically, long term administration is conducted according to the following protocol: the KK-Ay diabetic model mice are randomized into blank control group (injected only with PBS) and experimental group (injected with 1 mg/Kg of the fusion protein in Table 3). The drug is given twice per week; after 2 weeks, the mice are fasted for 6 h and tested for fasting blood glucose, and the blood glucose decrease of one experimental group is calculated by subtracting the fasting blood glucose of the experimental group from that of the blank control group.

Test [2] deals with T1, human GLP-1 receptor (Homo sapiens, UniProt P43220).
T1 construct: expressed in transfected cells; host or cells: CHO (CHO-hGLP1R)
The test can be described thus: cAMP secretion test on human GLP-1 receptor CHO cell (CHO-hGLP1R). The format is cell-based. The following applies: for cAMP concentration: 30 min incubation, CHO-hGLP1R.

The target in test [3] is T1, human GLP-1 receptor. As to the kind of experiment: Combining (binding) test with CHO engineering cell line expressing human GLP-1R, flow cytometry. The following applies: 4° C. 30 min. On the procedure:
After PBS washing, human immunoglobulin γ chain antibody labeled with fluorescein FITC is added, and incubate at 4° C. for 30 min. After PBS washing, 1% paraformaldehyde in PBS is added, mix thoroughly and load the sample, read the mean fluorescence intensity of sample of each concentration in selected zone in the flow cytometry.

The subject of test [4] is KK-Ay diabetic model mice. The test can be described thus: Single injection hypoglycemic test, KK-Ay mouse obesity diabetic model. The format is in vivo. Conditions: 1 mg/Kg, single injection through caudal vein, 0-240 min, fasted 2 h.
Test [5] concerns KK-Ay diabetic model mice. As to the kind of experiment: Oral glucose tolerance test, KK-Ay diabetic model mice. Conditions: 1 mg/Kg and 0.1 mg/Kg subcutaneously, glucose 1 mg/g by gastric tube 6 h later. Type of test: in vivo, mouse.
The test system of test [6] is db/db diabetic model mice. As to the kind of experiment: Single injection hypoglycemic test, db/db mouse obesity diabetic model. Type of test: in vivo. The following applies: 1 mg/Kg and 0.1 mg/Kg groups, single injection through caudal vein, 0-240 min.

T1 sequence (P43220 24-463): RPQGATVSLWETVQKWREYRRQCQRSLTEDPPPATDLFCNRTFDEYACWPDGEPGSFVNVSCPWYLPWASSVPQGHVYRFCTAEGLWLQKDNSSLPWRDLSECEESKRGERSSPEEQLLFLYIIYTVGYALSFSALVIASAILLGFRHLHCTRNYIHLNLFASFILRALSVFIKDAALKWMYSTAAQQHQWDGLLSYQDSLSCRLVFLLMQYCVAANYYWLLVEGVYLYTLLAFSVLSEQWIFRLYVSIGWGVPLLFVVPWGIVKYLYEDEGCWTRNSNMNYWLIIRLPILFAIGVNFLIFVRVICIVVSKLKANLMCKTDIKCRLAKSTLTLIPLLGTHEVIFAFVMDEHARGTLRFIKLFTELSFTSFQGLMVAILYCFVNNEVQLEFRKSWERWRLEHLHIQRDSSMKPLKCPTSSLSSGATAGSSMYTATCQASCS

In test [1] (fasted 6 h), “SEQ ID NO: 22: fusion protein: peptide hormone SEQ ID NO: 1 (Exendin-4), linker SEQ ID NO: 3, IgG4-Fc” gave a Relative bioactivity of 75%.

B1: LAX09: Exendin-4 (SEQ ID NO: 1) fused via linker SEQ ID NO: 3 to Fc fragment of human IgG2; SEQ ID NO: 4 (protein)
chain: HGEGTFTSDLSKQMEEEAVRLFIEWLKDGGPSSGAPPPSGGGGAGGGGVECPPCPAPPVAGPSVFLFPPKPKDTLMISRTPEVTCVVVDVSHEDPEVQFNWYVDGVEVHNAKTKPREEQFNSTFRVVSVLTVVHQDWLNGKEYKCKVSNKGLPAPIEKTISKTKGQPREPQVYTLPPSREEMTKNQVSLTCLVKGFYPSDIAVEWESNGQPENNYKTTPPMLDSDGSFFLYSKLTVDKSRWQQGNVFSCSVMHEALHNHYTQKSLSLSPGK
modifications: The sequence is synthesized
As for B1, the EC50 in test [2] (cAMP in CHO-hGLP1R cells) is ~4.5 nM. Further, the cAMP concentration in test [2] (drug concentration 0.01 nM) amounted to 2; in test [2] (drug concentration 0.1 nM) it was 5; in test [2] (drug concentration 1 nM), 31; in test [2] (drug concentration 10 nM) it was 115; in test [2] (drug concentration 1000 nM), 153. For the same molecule, the Mean fluorescence intensity in test [3] (LAX09 mass concentration 0.098 μg/mL) is on record as 14.12; in test [3] (LAX09 mass concentration 0.246 μg/mL) it was 17.53; in test [3] (LAX09 mass concentration 0.614 μg/mL), 21.78; in test [3] (LAX09 mass concentration 1.536 μg/mL), 38.01; in test [3] (LAX09 mass concentration 3.84 μg/mL), 57.03; in test [3] (LAX09 mass concentration 9.6 μg/mL) it was 81.54. Further, the Mean fluorescence intensity in test [3] (LAX09 mass concentration 24 μg/mL) is on record as 94.81; in test [3] (LAX09 mass concentration 60 μg/mL) it was 121.98. In addition, the “blood glucose of the mouse” value in test [4] is reported as “under 10 mmol/L”. Besides, in test [5], the “ability to maintain normal blood glucose (oral glucose tolerance)” value was “same good ability to maintain normal blood glucose”. For the same molecule, the food intake result in test [1] is listed as “decreases”. Further, the weight entry in test [1] was “significantly reduced”. Also, the fast blood glucose result in test [1] (fasted 6 h, versus PBS group) is “significantly different from that of PBS group”. In addition, the “hypoglycemic effect (blood glucose)” value in test [6] is on record as “best hypoglycemic effect”.

B2: SEQ ID NO: 11: fusion protein: peptide hormone SEQ ID NO: 12 (differs from SEQ ID NO:1 in 6 sites), linker SEQ ID NO: 3, IgG2-Fc (protein)
chain: B1 chain with G2A, L10A, K12L, Q13T, M14Y, V19C
modifications: The sequence is synthesized
Regarding B2, in test [1] (fasted 6 h), the Relative bioactivity came out at 96%.

B3: SEQ ID NO: 5: fusion protein: peptide hormone SEQ ID NO: 6 (differs from SEQ ID NO:1 in 2 sites), linker SEQ ID NO: 3, IgG2-Fc (protein)
chain: B1 chain with G2T, L10A
modifications: The sequence is synthesized
B3: in test [1] (fasted 6 h), the Relative bioactivity is on record as 99%.

B4: SEQ ID NO: 9: fusion protein: peptide hormone SEQ ID NO: 10 (differs from SEQ ID NO:1 in 4 sites), linker SEQ ID NO: 3, IgG2-Fc (protein)
chain: B1 chain with G2A, L10A, K12L, Q13T
modifications: The sequence is synthesized
In test [1] (fasted 6 h), B4 returned a Relative bioactivity of 97%.

B5: SEQ ID NO: 7: fusion protein: peptide hormone SEQ ID NO: 8 (differs from SEQ ID NO:1 in 3 sites), linker SEQ ID NO: 3, IgG2-Fc (protein)
chain: B1 chain with G2T, L10A, K12L
modifications: The sequence is synthesized
With B5, in test [1] (fasted 6 h), the Relative bioactivity was 98%.

B6: SEQ ID NO: 15: fusion protein: peptide hormone SEQ ID NO: 16 (differs from SEQ ID NO:2 in 3 sites), linker SEQ ID NO: 3, IgG2-Fc (protein)
chain: HTEGTFTSDASSYLEGQACKEFIAWLVKGRGGGGAGGGGVECPPCPAPPVAGPSVFLFPPKPKDTLMISRTPEVTCVVVDVSHEDPEVQFNWYVDGVEVHNAKTKPREEQFNSTFRVVSVLTVVHQDWLNGKEYKCKVSNKGLPAPIEKTISKTKGQPREPQVYTLPPSREEMTKNQVSLTCLVKGFYPSDIAVEWESNGQPENNYKTTPPMLDSDGSFFLYSKLTVDKSRWQQGNVFSCSVMHEALHNHYTQKSLSLSPGK
modifications: The sequence is synthesized
In turn, B6 showed a Relative bioactivity in test [1] (fasted 6 h) of 94%.

B7: SEQ ID NO: 17: fusion protein: peptide hormone SEQ ID NO: 18 (differs from SEQ ID NO:2 in 3 sites), linker SEQ ID NO: 3, IgG2-Fc (protein)
chain: B6 chain with A10L, C19S
modifications: The sequence is synthesized
In test [1] (fasted 6 h), B7 had a Relative bioactivity of 93%.

B8: SEQ ID NO: 21: fusion protein: peptide hormone SEQ ID NO: 2 (GLP-1 (7-36) NH2), linker SEQ ID NO: 3, IgG2-Fc (protein)
chain: B6 chain with T2A, A10V, C19A
modifications: The sequence is synthesized
In turn, B8 came in with a Relative bioactivity in test [1] (fasted 6 h) of 91%.

B9: SEQ ID NO: 19: fusion protein: peptide hormone SEQ ID NO: 20 (differs from SEQ ID NO:2 in 2 sites), linker SEQ ID NO: 3, IgG2-Fc (protein)
chain: B6 chain with T2A, A10L, C19I
modifications: The sequence is synthesized
In turn, B9 registered a Relative bioactivity in test [1] (fasted 6 h) of 92%.

B10: SEQ ID NO: 13: fusion protein: peptide hormone SEQ ID NO: 14 (GLP-1A8G), linker SEQ ID NO: 3, IgG2-Fc (protein)
chain: AAEGTFTGDVSSYLEGQAAKEFIAWLVKGRGGGGGAGGGGVECPPCPAPPVAGPSVFLFPPKPKDTLMISRTPEVTCVVVDVSHEDPEVQFNWYVDGVEVHNAKTKPREEQFNSTFRVVSVLTVVHQDWLNGKEYKCKVSNKGLPAPIEKTISKTKGQPREPQVYTLPPSREEMTKNQVSLTCLVKGFYPSDIAVEWESNGQPENNYKTTPPMLDSDGSFFLYSKLTVDKSRWQQGNVFSCSVMHEALHNHYTQKSLSLSPGK
modifications: The sequence is synthesized
For the molecule B10, the Relative bioactivity in test [1] (fasted 6 h) came out at 95%.

The EC50 is the concentration that produces a half-maximal response.

Source of the values: patent US8889619B2 (Beijing Dongfang Biotech Co., Ltd., priority 2010, dated 2014).
